Test results published in article PMC12859064.
Values belong to the molecule of their own block, whether it stands above or below them.

Target: Flag-Axin1 (mouse)
Assay: SPR; BIAcore 8K, CM5 chip; Flag-Axin1 immobilised by amine coupling (20 μg/mL, sodium acetate pH 4.5); analytes 25-400 nM, 30 μL/min, 120 s association, 300 s dissociation; step of the Axin1 self-association not told

Kd: 147 nM
Molecule: Flag-Axin1 (natural protein)

Kd: 37.8 nM
B1: Flag-TRIM15 (natural protein)
chain: MPATPSLKVVHELPACTLCAGPLEDAVTIPCGHTFCRLCLPALSQMGAQSSGKILLCPLCQEEEQAETPMAPVPLGPLGETYCEEHGEKIYFFCENDAEFLCVFCREGPTHQAHTVGFLDEAIQPYRDRLRSRLEALSTERDEIEDVKCQEDQKLQVLLTQIESKKHQVETAFERLQQELEQQRCLLLARLRELEQQIWKERDEYITKVSEEVTRLGAQVKELEEKCQQPASELLQDVRVNQSRCEMKTFVSPEAISPDLVKKIRDFHRKILTLPEMMRMFSENLAHHLEIDSGVITLDPQTASRSLVLSEDRKSVRYTRQKKSLPDSPLRFDGLPAVLGFPGFSSGRHRWQVDLQLGDGGGCTVGVAGEGVRRKGEMGLSAEDGVWAVIISHQQCWASTSPGTDLPLSEIPRGVRVALDYEAGQVTLHNAQTQEPIFTFTASFSGKVFPFFAVWKKGSCLTLKG
